According to US20260092097A1 (ALTOR BIOSCIENCE, published 2026):
Values belong to the binder of their own block, whether it stands above or below them.

Biological target: T1, IL-15 receptor (IL-15RβγC) on 32Dβ cells (human; mouse, UniProt P14784 27-551; P34902 23-369)
T1 sequence (looked up) 1: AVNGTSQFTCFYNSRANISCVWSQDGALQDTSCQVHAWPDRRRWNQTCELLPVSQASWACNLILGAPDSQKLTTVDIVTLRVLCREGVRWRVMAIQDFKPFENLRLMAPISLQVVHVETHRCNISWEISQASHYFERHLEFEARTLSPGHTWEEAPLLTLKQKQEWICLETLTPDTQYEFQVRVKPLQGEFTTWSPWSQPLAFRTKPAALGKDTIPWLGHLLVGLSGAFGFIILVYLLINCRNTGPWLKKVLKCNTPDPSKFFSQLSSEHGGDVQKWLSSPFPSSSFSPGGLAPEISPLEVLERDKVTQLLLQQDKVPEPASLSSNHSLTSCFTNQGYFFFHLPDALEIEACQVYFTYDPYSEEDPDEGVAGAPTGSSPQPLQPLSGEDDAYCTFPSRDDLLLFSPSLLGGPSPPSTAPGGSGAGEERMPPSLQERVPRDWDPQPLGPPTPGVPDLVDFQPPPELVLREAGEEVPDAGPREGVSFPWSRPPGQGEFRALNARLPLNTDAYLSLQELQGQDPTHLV
T1 sequence (looked up) 2: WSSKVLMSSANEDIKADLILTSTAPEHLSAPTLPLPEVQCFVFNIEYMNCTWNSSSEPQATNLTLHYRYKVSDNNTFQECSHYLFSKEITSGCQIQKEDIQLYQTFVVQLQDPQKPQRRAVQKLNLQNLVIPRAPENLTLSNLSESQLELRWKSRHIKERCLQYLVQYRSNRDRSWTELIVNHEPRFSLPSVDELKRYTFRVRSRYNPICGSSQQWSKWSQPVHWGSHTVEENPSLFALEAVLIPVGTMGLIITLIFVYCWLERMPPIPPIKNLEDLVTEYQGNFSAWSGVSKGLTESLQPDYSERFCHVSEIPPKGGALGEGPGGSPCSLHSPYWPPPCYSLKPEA
Assay: cell-based or functional assay

IL-15 dependent 32Dβ cell proliferation, EC50: 0.0158 nM
B1: in vitro assembled IL-15N72D:IL-15RαSu/Fc complex (IL-15N72D:IL-15RαSu/Fc IVA) (Fc fusion)
chain 1: PELLGG
chain 2: PEAAGG

IL-15 dependent 32Dβ cell proliferation, EC50: 0.0156 nM
B2: IL-15N72D:IL-15RαSu/Fc complex (Alt-803) (Fc fusion)
chain 1: PELLGG
chain 2: PEAAGG
